Results: the FLAb antibody collection (doi:10.7554/elife.23156)

B1: scFv; the commonest letter at each place (parent)
chain 1: EVKLDETGGGLVQPGRPMKLSCVASGFTFSDYWMNWVRQSPEKGLEWVAQIRNKPYNYETYYSDSVKGRFTISRDDSKSSVYLQMNNLRVEDMGIYYCTGSYYGMDYWGQGTSVTVS
chain 2: DVVMTQTPLSLPVSLGDQASISCRSSQSLVHSNGNTYLRWYLQKPGQSPKVLIYKVSNRFSGVPDRFSGSGSGTDFTLKISRVEAEDLGVYFCSQSTHVPWTFGGGTKLEIK

Key:
fluorescein = variants of: B1; experiment: Kd (Tite-Seq); conditions: with fluorescein; format: scFv 4-4-20, heavy + light
[1] = variants of: B1; experiment: yeast surface expression (ratio to wild type); higher = more expressed; conditions: format: scFv 4-4-20, heavy + light

Variant	Kd (fluorescein) [nM]	yeast surface expression [1]
chain 1 EVKLDETGGGLVQPGRPMKLSCVASGFTFSDYWMGWVRQSPEKGLEWVAQIRNKPYNYETYYSDSVKGRFTISRDDSKSSVYLQMNNLRVEDMGIYYCTGSYYGMDYWGQGTSVTVS chain 2 DVVMTQTPLSLPVSLGDQASISCRSSQSLVHSNGNTYLRWYLQKPGQSPKVLIYKVSNRFSGVPDRFSGSGSGTDFTLKISRVEAEDLGVYFCSQSTHVPWTFGGGTKLEIK [chain 1 N35G]	10.2	0.989
chain 1 EVKLDETGGGLVQPGRPMKLSCVASGFTFSDYWMNWVRQSPEKGLEWVAQIRNKPYNYETYYSDSVKGRFTISRDDSKSSVYLQMNNLRVEDMGIYYCTGSYYAMTYWGQGTSVTVS chain 2 DVVMTQTPLSLPVSLGDQASISCRSSQSLVHSNGNTYLRWYLQKPGQSPKVLIYKVSNRFSGVPDRFSGSGSGTDFTLKISRVEAEDLGVYFCSQSTHVPWTFGGGTKLEIK [chain 1 G104A D106T]	≥ 10000	0.78
chain 1 EVKLDETGGGLVQPGRPMKLSCVASGFTFSDYWMNWVRQSPEKGLEWVAQIRNKPYNYETYYSDSVKGRFTISRDDSKSSVYLQMNNLRVEDMGIYYCTGSAYGTDYWGQGTSVTVS chain 2 DVVMTQTPLSLPVSLGDQASISCRSSQSLVHSNGNTYLRWYLQKPGQSPKVLIYKVSNRFSGVPDRFSGSGSGTDFTLKISRVEAEDLGVYFCSQSTHVPWTFGGGTKLEIK [chain 1 Y102A M105T]	176	1.08
chain 1 EVKLDETGGGLVQPGRPMKLSCVASGFTFPDYWMNWYRQSPEKGLEWVAQIRNKPYNYETYYSDSVKGRFTISRDDSKSSVYLQMNNLRVEDMGIYYCTGSYYGMDYWGQGTSVTVS chain 2 DVVMTQTPLSLPVSLGDQASISCRSSQSLVHSNGNTYLRWYLQKPGQSPKVLIYKVSNRFSGVPDRFSGSGSGTDFTLKISRVEAEDLGVYFCSQSTHVPWTFGGGTKLEIK [chain 1 S30P V37Y]	72.9	1.25
chain 1 EVKLDETGGGLVQPGRPMKLSCVASGFTPSDYWCNWVRQSPEKGLEWVAQIRNKPYNYETYYSDSVKGRFTISRDDSKSSVYLQMNNLRVEDMGIYYCTGSYYGMDYWGQGTSVTVS chain 2 DVVMTQTPLSLPVSLGDQASISCRSSQSLVHSNGNTYLRWYLQKPGQSPKVLIYKVSNRFSGVPDRFSGSGSGTDFTLKISRVEAEDLGVYFCSQSTHVPWTFGGGTKLEIK [chain 1 F29P M34C]	≥ 10000	0.755
chain 1 EVKLDETGGGLVQPGRPMKLSCVASGFTFSDYWMNWVRQSPEKGLEWVAQIRNKPYNYETYYSDSVKGRFTISRDDSKSSVYLQMNNLRVEDMGIYYCTGSYNFMDYWGQGTSVTVS chain 2 DVVMTQTPLSLPVSLGDQASISCRSSQSLVHSNGNTYLRWYLQKPGQSPKVLIYKVSNRFSGVPDRFSGSGSGTDFTLKISRVEAEDLGVYFCSQSTHVPWTFGGGTKLEIK [chain 1 Y103N G104F]	≥ 10000	0.839
chain 1 EVKLDETGGGLVQPGRPMKLSCVASGFTFSHYWMNWVRQSPEKGLEWVAQIRNKPYNYETYYSDSVKGRFTISRDDSKSSVYLQMNNLRVEDMGIYYCTGSYYGMDYWGQGTSVTVS chain 2 DVVMTQTPLSLPVSLGDQASISCRSSQSLVHSNGNTYLRWYLQKPGQSPKVLIYKVSNRFSGVPDRFSGSGSGTDFTLKISRVEAEDLGVYFCSQSTHVPWTFGGGTKLEIK [chain 1 D31H]	1.79	0.763

The next lines start with results.

Kd (fluorescein) [nM]	Variant	yeast surface expression [1]
≥ 10000	chain 1 EVKLDETGGGLVQPGRPMKLSCVASGFTASDYWKNWTRQSPEKGLEWVAQIRNKPYNYETYYSDSVKGRFTISRDDSKSSVYLQMNNLRVEDMGIYYCTGSYYGMDYWGQGTSVTVS chain 2 DVVMTQTPLSLPVSLGDQASISCRSSQSLVHSNGNTYLRWYLQKPGQSPKVLIYKVSNRFSGVPDRFSGSGSGTDFTLKISRVEAEDLGVYFCSQSTHVPWTFGGGTKLEIK [chain 1 F29A M34K V37T]	0.628
≥ 10000	chain 1 EVKLDETGGGLVQPGRPMKLSCVASGFTFSDYWGQWVRQSPEKGLEWVAQIRNKPYNYETYYSDSVKGRFTISRDDSKSSVYLQMNNLRVEDMGIYYCTGSYYGMDYWGQGTSVTVS chain 2 DVVMTQTPLSLPVSLGDQASISCRSSQSLVHSNGNTYLRWYLQKPGQSPKVLIYKVSNRFSGVPDRFSGSGSGTDFTLKISRVEAEDLGVYFCSQSTHVPWTFGGGTKLEIK [chain 1 M34G N35Q]	0.503
≥ 10000	chain 1 EVKLDETGGGLVQPGRPMKLSCVASGFTFSDYWMNWVRQSPEKGLEWVAQIRNKPYNYETYYSDSVKGRFTISRDDSKSSVYLQMNNLRVEDMGIYYCTGSYFGTDYWGQGTSVTVS chain 2 DVVMTQTPLSLPVSLGDQASISCRSSQSLVHSNGNTYLRWYLQKPGQSPKVLIYKVSNRFSGVPDRFSGSGSGTDFTLKISRVEAEDLGVYFCSQSTHVPWTFGGGTKLEIK [chain 1 Y103F M105T]	1.01
1.35	chain 1 EVKLDETGGGLVQPGRPMKLSCVASGFTFIDYWMNWCRQSPEKGLEWVAQIRNKPYNYETYYSDSVKGRFTISRDDSKSSVYLQMNNLRVEDMGIYYCTGSYYGMDYWGQGTSVTVS chain 2 DVVMTQTPLSLPVSLGDQASISCRSSQSLVHSNGNTYLRWYLQKPGQSPKVLIYKVSNRFSGVPDRFSGSGSGTDFTLKISRVEAEDLGVYFCSQSTHVPWTFGGGTKLEIK [chain 1 S30I V37C]	0.464
≥ 10000	chain 1 EVKLDETGGGLVQPGRPMKLSCVASGFTFSDYSMIWVRQSPEKGLEWVAQIRNKPYNYETYYSDSVKGRFTISRDDSKSSVYLQMNNLRVEDMGIYYCTGSYYGMDYWGQGTSVTVS chain 2 DVVMTQTPLSLPVSLGDQASISCRSSQSLVHSNGNTYLRWYLQKPGQSPKVLIYKVSNRFSGVPDRFSGSGSGTDFTLKISRVEAEDLGVYFCSQSTHVPWTFGGGTKLEIK [chain 1 W33S N35I]	0.495
